target: T1, γδ T cell receptor on human γδ T cells (human); assay: flow cytometry, DRC binding 37 C, human γδ T cells
T1 construct: also called AG000003021 (γδ T cells)
Procedure: (§1) Binding of antibodies to human γδ T cells or SKW cell lines expressing Vγ9/Vδ2, Vγ9/Vδ2 or Vγ5/Vδ2 was carried out by flow cytometry. Briefly, the cells were centrifuged at 300×g for 5 minutes and the pellet was resuspended in 34 ml fresh media (in RPMI+10% FBS). 50 μL of the cells were then plated (44K cells/well) into assay plates. Samples were incubated for one hour at 37° C. in tissue culture (TC) incubator followed by wash steps by adding 100 μl FACS staining buffer. Secondary detention antibodies (A647 conjugated anti-human IgG Fc specific antibody (2 μg/mL) along with AF488 anti mouse CD3, clone OKT3 at 1 ug/mL) were added at 50 μL/well to appropriate wells according to the plate map. After incubating for 60 minutes at 37° C. in the TC incubator, cells were again washed as described above. This is followed by resuspension in 20 μL/well running buffer containing 1:1000 dilution of Sytox blue dead cell stain and the plates were run on iQue Screener.
(§2) Gating and data analysis: Human anti-human Vγ9 antibody (VG9B2 mAb at 10 nM) was used to mark the gating of positive population. All cells were first gated for singlets on SCS-A vs. SCS-H dot plot, live/dead followed by CD3 positive population, and this subset of CD3 positive population was gated for Vγ9 positive binding using positive control mAb. Cells were also assessed for cell binding of control mAbs by RL1 (A647) Geomeans from the live cell population. Advanced metrics were used and normalization metrics were chosen to calculate fold over background wells containing secondary antibody alone (designated as ‘background’ within ForeCyt settings).

Max. Activity [fold over background]	Binder
1130	VG9B204 (antibody, human IgG1, lambda, V domains shown, IgG1, lambda) VH: QVQLQESGPGLVKPSETLSLTCTVSYGSFSSFYWSWIRQPAGKGLEWIGRIYTSGGTIYNPSLKSRVTMSVDTSKNQFSLKLSSVTAADTAVYYCARWLRAFDYWGQGTLVTVSS VL: not shown
1190	VG9B68 (antibody, human IgG1, kappa, V domains shown, IgG1, kappa) VH: EVQLVESGAEVKKPGSSVKVSCKASGGTFSTYAISWVRQAPGQGLEWMGGIIPIFGTATYAQRFQDRVMITADKSTTTAYMELSSLRSEDTAVFYCARGVGWGSDYYYGLDVWGQGTMVTVSS VL: EIVMTQSPLSSPVTLGQPASISCRSSQSLVHSDGNTYLSWLQQRPGQSPRLLIYKISNRFSGVPDRFSGSGAGTDFTLRITRVEPEDVGVYYCIQATHHPLTFGGGTRLEIKR
1240	VG9B439 (antibody, human IgG1, lambda, IgG1, lambda) heavy: not shown light: QSALTQPASVSGSPGQSITISCTGTSSDVGGYNYVSWYQQHPGKAPKLMIYEVSNRPSGVSNRFSGSKSGNTASLTISGLQAEDEADYYCSSYTSTSVVFGGGTKLTVLGQPKAAPSVTLFPPSSEELQANKATLVCLISDFYPGAVTVAWKADSSPVKAGVETTTPSKQSNNKYAASSYLSLTPEQWKSHRSYSCQVTHEGSTVEKTVAPTECS
1090	VG9B459 (antibody, human IgG1, lambda, IgG1, lambda) heavy: not shown light: QPVLTQPASVSGSPGQSITISCTGTSSDVGGYNYVSWYQQHPGKAPKLMIYEVSNRPSGVSNRFSGSKSGNTASLTISGLQAEDEADYYCSSYTSTSVVFGGGTKLTVLGQPKAAPSVTLFPPSSEELQANKATLVCLISDFYPGAVTVAWKADSSPVKAGVETTTPSKQSNNKYAASSYLSLTPEQWKSHRSYSCQVTHEGSTVEKTVAPTECS
1240	VG9B454 (antibody, human IgG1, lambda, IgG1, lambda) heavy: not shown light: QAVLTQPASVSGSPGQSITISCTGTSSDVGGYNYVSWYQQHPGKAPKLMIYEVSNRPSGVSNRFSGSKSGNTASLTISGLQAEDEADYYCSSYTSTSVVFGGGTKLTVLGQPKAAPSVTLFPPSSEELQANKATLVCLISDFYPGAVTVAWKADSSPVKAGVETTTPSKQSNNKYAASSYLSLTPEQWKSHRSYSCQVTHEGSTVEKTVAPTECS
1180	VG9B449 (antibody, human IgG1, lambda, IgG1, lambda) heavy: not shown light: QAVLTQPASVSGSPGQSITISCTGTSSDVGGYNYVSWYQQHPGKAPKLMIYEVSNRPSGVSNRFSGSKSGNTASLTISGLQAEDEADYYCSSYTSTSVVFGGGTKVTVLGQPKAAPSVTLFPPSSEELQANKATLVCLISDFYPGAVTVAWKADSSPVKAGVETTTPSKQSNNKYAASSYLSLTPEQWKSHRSYSCQVTHEGSTVEKTVAPTECS

target: T2, gamma-delta T cell receptor on human γδ T cells (human); assay: flow cytometry, dose-response binding at 37 C, human γδ T cells
T2 construct: also called AG000003021 (γδ T cells)
Procedure: as §1, §2

Max. Activity [fold over background]	Binder
1750	VG9B203 (antibody, human IgG1, lambda, V domains shown, IgG1, lambda) VH: QVQLVQSGPGLVKPSETLSLTCTVSGDSIGHYYWNWIRQPAGKGLEWIGRIYTSGSTNYNPSLKSRVTMSVDTSKNQFSLKLSSVTAADTAVYYCARSGGNFYWYFDLWGRGTLVTVSS VL: QSVLTQPPSVSAAPGQKVTISCSGSSSNIGNNYVSWYQQVPGTAPKLLIYDNNKRPSGIPDRISGSKSGTSATLGITGLQTGDEADYYCGTWDSSLSAGVFGGGTKVTVLG
1350	VG9B163 (antibody, human IgG1, lambda, V domains shown, IgG1, lambda) VH: QVQLVQSGGGLVKPGASLKLSCAASGFTFSNHGMSWVRQTSDKRLEWVASITRGGDTTYYPDNVKGRFTISRENAKNTLYLQMSSLKSDDTALYYCTRGPLTVGYAMDYWGQGTTVTVSS VL: QLVLTQPPSVSAAPGQKVTISCSGNSSNIGHNYVSWYQQLPGTAPKLLIYDNNQRPSGIPDRFSGSKSDTSATLGITGLQTGDEADYYCGIWDSSLSIVVFGGGTKVTVLG
1980	VG9B114 (antibody, human IgG1, kappa, V domains shown, IgG1, kappa) VH: EVQLVESGGDLVQPGGSLRLSCAASGFTFSRYDMHWVRQATGKGLEWVSAIGSAGDTYYPGSVKGRFTISRENAKNSLYLQMNSLRAGDTAVYYCARGKWELRDAFDIWGQGTMVTVSS VL: DIVMTQSPSFLSASVGDRVTITCRASQGIHSYLAWYQQKPGKAPKLLIYVASTLQSGVPSRFSGSRSGTEFTLTISSLQPEDFATYYCQQLNSYPYTFGQGTKLEIKR
1680	VG9B103 (antibody, human IgG1, kappa, V domains shown, IgG1, kappa) VH: EVQLVQSGAEVKKPGSSVKVSCKTSGGTFSSYAISWVRQAPGQGLEWMGGIIPIFGTATYAQKFQDRVTITADKSTSTAYMELSSLRSEDTAVFYCARGVGWGTDYYYGLDVWGQGTTVTVSS VL: ETTLTQSPLSSPVTLGQPASISCRSSQGLVHSDGNTYLSWLQQRPGQSPRLLIYKISNRFSGVPDRFSGSGAGTDFTLKISRVEAEDVGVYYCMQATHHPLTFGGGTKVEIKR
1400	VG9B131 (antibody, human IgG1, kappa, V domains shown, IgG1, kappa) VH: QVQLVQSGGTLVQPGGSLRLSCAVSGFTFSSYDMNWVRQAPGKGLEWVSYISSSSTAKYYADSVKGRFTISRDNAKNSLYLQMNSLWDEDTAVYYCAREDIVVVTPILQHWGQGTLVTVSS VL: EIVMTQSPATLSLSPGERATLSCRASQSVSNYLAWYQQKSGQAPRLLIYDASNRATGIPARFSGSGSGTDFTLTISSLEPEDFAVYCCQQRSNWTFGQGTRLEIKR
1540	VG9B461 (antibody, human IgG1, lambda, IgG1, lambda) heavy: not shown light: QPVLTQSSSVSGSPGQSITISCTGTSSDVGGYNYVSWYQQHPGKAPKLMIYEVSNRPSGVSNRFSGSKSGNTASLTISGLQAEDEADYYCSSYTSTSVVFGGGTKVTVLGQPKAAPSVTLFPPSSEELQANKATLVCLISDFYPGAVTVAWKADSSPVKAGVETTTPSKQSNNKYAASSYLSLTPEQWKSHRSYSCQVTHEGSTVEKTVAPTECS
1750	VG9B380 (antibody, human IgG1, lambda, V domains shown, IgG1, lambda) VH: QVQLQESGPGLVKPSETLSLTCTVSGGSISNYYWSWIRQPAGKGLEWIGRIYPSGITSYDPSLKSRVTMSLDTSKNQFSLKLTSVTAADTAVYYCAGIMGTKGAFDIWGQGTMVTVSS VL: QSALTQPASVSGSPGQSITISCTGTSSDVGGYNYVSWYQQHPGKAPKLLIYEVSNRPSGVSNRFSGSKSGSTASLTISGLQAEDEADYYCSSYTSTSVVFGGGTKLTVLG

Further lines, the binder ahead of its results:

Binder	Max. Activity [fold over background]
VG9B106 (antibody, human IgG1, kappa, V domains shown, IgG1, kappa) VH: EVQLVQSGAEVKKPGASVKVSCKASGYTFTGYYLHWVRQAPGQGLEWVGWINPSSGDTDYAQTFQGRVTMTRDTSISTAYMELSRLRSDDTAVYYCANELGIGVFDYWGQGTLVTVSS VL: not shown	1520
VG9B147 (antibody, human IgG1, lambda, V domains shown, IgG1, lambda) VH: QVQLQESGPGLVNPSETLSLTCTVSGGSISGYFWNWIRQPPGKGLEWIGYIFYSGSTNYNPSLKSRVTISVDTSKNQFSLKLSSVTAADTAIYYCAREGKWELRSTFDIWGQGTMVTVSS VL: SSELTQDPAVSVALGQTVRITCQGDSLRSYYATWYQQKPGQAPILVIYGENNRPSGIPDRFSGSRSGNTASLTITGAQAEDEADYYCNSRDTGDHHLVFGGGTKLTVLG	1890
VG9B81 (antibody, human IgG1, kappa, V domains shown, IgG1, kappa) VH: QVQLQESGPGLVKPSETLSLTCSVSGGSINTYYWSWFRQPAGKGLELIGRIYTSDNTNYNPSLKSRVTMSVDTSKNQFSLKLSSVTAADTAVYYCARYNWNYWYFDLWGRGTLVTVSS VL: DIQMTQSPSFLSASVRDRVNITCRASQGISSYLAWYQQKPGKAPKLLIYTASTLQSGVPSRFSGSGSGTEFTLTISSLQPEDFATYYCQHLNSYPYTFGQGTKVEIKR	1770
VG9B462 (antibody, human IgG1, lambda, IgG1, lambda) heavy: not shown light: QSVLTQPASVSGSPGQSITISCTGTSSDVGGYNYVSWYQQHPGKAPKLMIYEVSNRPSGVSNRFSGSKSGNTASLTISGLQAEDEADYYCSSYTSTSVVFGGGTKLTVLGQPKAAPSVTLFPPSSEELQANKATLVCLISDFYPGAVTVAWKADSSPVKAGVETTTPSKQSNNKYAASSYLSLTPEQWKSHRSYSCQVTHEGSTVEKTVAPTECS	1540
VG9B458 (antibody, human IgG1, lambda, IgG1, lambda) heavy: not shown light: QSVLTQPASVSGSPGQSITISCTGTSSDVGGYNYVSWYQQHPGKAPKLMIYEVSNRPSGVSNRFSGSKSGNTASLTISGLQAEDEADYYCSSYTSTSVVFGGGTKLTVLGQPKAAPSVTLFPPSSEELQANKATLVCLISDFYPGAVTVAWKADSSPVKAGVETTTPSKQSNNKYAASSYLSLTPEQWKSHRSYSCQVTHEGSTVEKTVAPTECS	1410
VG9B27 (antibody, human IgG1, kappa, V domains shown, IgG1, kappa) VH: EVQLVQSGAEVKKPGSSVKVSCKASGGTFSSYVISWVRQAPGQGLEWMGGILPILSTANYAQKFQGRVTITADKSTSTAYMELSSLRSEDTAVYYCARAHDYYYGMDVWGQGTMVTVSS VL: not shown	1450
VG9B65 (antibody, human IgG1, kappa, V domains shown, IgG1, kappa) VH: QVQLVQSGAEVKKPGSSVKVSCKASGGTFNIYAINWVRQAPGQGLEWMGGIIPFFGTANYAQKFQDRVTITADKSTNTAYMELSSLRSEDTAVFYCARGGDSGYDWGFDYWGQGTLVTVSS VL: DIVMTQTPLSSPVTLGQPASISCRSSQSLVHSDGNTYLSWLQQRPGQPPRLLIYQISNRFSGVPDRFSGSGAGTDFTLNISRVEADDVGVYYCMQATQFPLTFGGGTKVEIKR	1820
VG9B115 (antibody, human IgG1, kappa, V domains shown, IgG1, kappa) VH: QVTLRESGPTLVKPTQTLTLTCTFSGFSLSTYGVGVGWIRQPPGKALEWLALIYWNDDKRYNPSLKSRLTITKDTSKNQVVLTMTNMDPVGTATYYCSHESDWSYYFDYWGQGTMVTVSS VL: EIVLTQSPATLSLSPGERATLSCRASQSVSSYLAWYQQKPGLAPRLLIYDASNRATGIPARFSGSGSGTDFTLTISSLEPVDFAVYYCQQRSSWPWTFGQGTKVDIKR	1520
